B1: C. crescentus ParB on a cysteine-less ParB background [C. crescentus] / itself (parent)
chain: MESVVVGEPGMSEGRRGLGRGLSALLGEVDAAPACAPGEQLGGSREAPIEILQRNPDQPRRTFREEDLEDLSNSIREKGVLQPILVRPSPDTAGEYQIVAGERRWRAAQRAGLKTVPIMVRELDDLAVLEIGIIENVQRADLNVLEEALSYKVLMEKFERTQENIAQTIGKSRSHVANTMRLLALPDEVQSYLVSGELTAGHARAIAAAADPVALAKQIIEGGLSVRETEALARKAPNLSAGKSKGGRPPRVKDTDTQALESDLSSVLGLDVSIDHRGSTGTLTITYATLEQLDDLSNRLTRGI

This experiment covers variants of B1. The experiment in a line: BMOE crosslinking assay. Particulars: with itself, 8 µM ParB variant, 0.5 µM 22 bp parS DNA, 5 min preincubation, read off a plot.
The mark [1] stands for this setting: 1 µM CTP point (lowest), parent: 33.
The mark [2] stands for this setting: 1000 µM CTP point (highest), parent: 80.

The source of these data is paper PMC8367383, “A CTP-dependent gating mechanism enables ParB spreading on DNA” (eLife, 2021).

For the variant MESVVVGEPGMSEGRRGLGRGLSALLGEVDAAPACAPGEQLGGSREAPIEILQRNPDAPRRTFREEDLEDLSNSIREKGVLQPILVRPSPDTAGEYQIVAGERRWRAAQRAGLKTVPIMVRELDDLAVLEIGIIENVQRADLNVLEEALSYKVLMEKFERTQENIAQTIGKSRSHVANTMRLLALPDEVQSYLVSGELTAGHARAIAAAADPVALAKQIIEGGLSVRETEALARKAPNLSAGKSKGGRPPRVKDTDTQALESDLSSVLGLDVSIDHRGSTGTLTITYATLEQLDDLSNRLTRGI [chain 1 Q58A], the response reads like this: under setting [1], 64%; under setting [2], 79%.

In the case of MESVVVGEPGMSEGRRGLGRGLSALLGEVDAAPACAPGEQLGGSREAPIEILQRNPDQPRRTFREEDLEDLSNSIREKSVLQPILVRPSPDTAGEYQIVAGERRWRAAQRAGLKTVPIMVRELDDLAVLEIGIIENVQRADLNVLEEALSYKVLMEKFERTQENIAQTIGKSRSHVANTMRLLALPDEVQSYLVSGELTAGHARAIAAAADPVALAKQIIEGGLSVRETEALARKAPNLSAGKSKGGRPPRVKDTDTQALESDLSSVLGLDVSIDHRGSTGTLTITYATLEQLDDLSNRLTRGI [chain 1 G79S], the response runs as follows: under setting [1], 27%; under setting [2], 62%.

As for MESVVVGEPGMSEGRRGLGRGLSALLGEVDAAPACAPGEQLGGSREAPIEILQRNPDQPRRTFREEDLEDLSNSIREKGVLQPILVRPSPDTAGEYQIVAGARRWRAAQRAGLKTVPIMVRELDDLAVLEIGIIENVQRADLNVLEEALSYKVLMEKFERTQENIAQTIGKSRSHVANTMRLLALPDEVQSYLVSGELTAGHARAIAAAADPVALAKQIIEGGLSVRETEALARKAPNLSAGKSKGGRPPRVKDTDTQALESDLSSVLGLDVSIDHRGSTGTLTITYATLEQLDDLSNRLTRGI [chain 1 E102A], the response under setting [1] turned out to be 31% and the response under setting [2] amounted to 80%.

As to MESVVVGEPGMSEGRRGLGRGLSALLGEVDAAPACAPGEQLGGSREAPIEILQRNPDQPRRTFREEDLEDLSNSIREKGVLQPILVRPSPDTAGEYQIVAGERRWRAAQRAGLKTVPIMVRELDDLAVLEIGIIEAVQRADLNVLEEALSYKVLMEKFERTQENIAQTIGKSRSHVANTMRLLALPDEVQSYLVSGELTAGHARAIAAAADPVALAKQIIEGGLSVRETEALARKAPNLSAGKSKGGRPPRVKDTDTQALESDLSSVLGLDVSIDHRGSTGTLTITYATLEQLDDLSNRLTRGI [chain 1 N136A], the response is, setting by setting: under setting [1], 52%; under setting [2], 64%.

As for MESVVVGEPGMSEGRRGLGRGLSALLGEVDAAPACAPGEQLGGSREAPIEILQRNPDQPRRTFREEDLEDLSNSIREKGVLQPILVRPSPDTAGEYQIVAGERRWRAAQRAGLKTVPIMVRELDDLAVLEIGIIANVQRADLNVLEEALSYKVLMEKFERTQENIAQTIGKSRSHVANTMRLLALPDEVQSYLVSGELTAGHARAIAAAADPVALAKQIIEGGLSVRETEALARKAPNLSAGKSKGGRPPRVKDTDTQALESDLSSVLGLDVSIDHRGSTGTLTITYATLEQLDDLSNRLTRGI [chain 1 E135A], the response was 68% under setting [1] and 80% under setting [2].
